Laboratory results taken from patent US20210171630A1 (MacroGenics, published 2021).

How the values were obtained:
[1] = biological target: T1, Human CD16B, His tagged (R&D Systems) (human, UniProt O75015 17-200); test: SPR (ProteOn); CD16-His immobilized via anti-PentaHis, diabody passed over
T1 construct: Bought (R&D Systems); also called CD16-His tagged molecules; not shown: His tag
Description: (§1) A ProteOn analysis was conducted to assess the binding of the CD16 Binding Domains of the constructed diabodies to CD16-His tagged molecules (R&D Systems) that had been immobilized on a chip. The CD16 molecules were immobilized via an anti-PentaHis antibody, followed by incubation incubation with the diabodies.

[2] = biological target: T2, Human CD16A 158V, His tagged (R&D Systems) (human, UniProt P08637 17-208); test: as above
T2 construct: Bought (R&D Systems); also called CD16-His tagged molecules; not shown: His tag
Description: as §1

[3] = biological target: T3, Human CD16A V158F, His tagged (R&D Systems) (human, UniProt P08637 17-208); test: as above
T3 construct: Bought (R&D Systems); also called CD16-His tagged molecules; not shown: His tag
Description: as §1

[4] = biological target: T4, human CD16A on the surface of NK cells (human, UniProt P08637 17-254); test: flow cytometry, whole blood of donor D48353, gated lymphocyte population: αhFc APC (% positive)
T4 construct: whole, on cells; also called CD16A-expressing cells of the gated lymphocyte population; human CD16 on NK cells

[5] = biological target: T5, Human CD16A 158V (labeled with Avitag) (human, UniProt P08637 17-208); test: SPR (BIACORE); diabody captured on goat F(ab')2 anti-human Fc, CD16A-Avitag passed over; 1:1 fit
T5 construct: also called human CD16A V/F molecules; CD16 158V allotype; not shown: Avitag

[6] = biological target: T6, Human CD16A 158F (labeled with Avitag) (human, UniProt P08637 17-208); test: as above
T6 construct: also called human CD16A V/F molecules; not shown: Avitag

[7] = biological target: T4, human CD16A on the surface of NK cells; test: flow cytometry, whole blood of donor D59780, NK cells: CD56 APC / αhFc PE double-positive cells (%)
Description: Following incubation, the cells were labled with: anti-CD56-allophycocyanin (CD56 APC, NK cell marker), anti-CD66b-fluorescein isothiocyanate (CD66b FITC, neutrophil cell marker) and anti-CD3-peridinin chlorophyll protein-Cy5.5 (CD3 PerCP Cy5.5, T-cell marker), and anti-humanFc-Phycoerythrin (αhFc PE) to detect diabody binding and the cell surface. The labeled cells were analyzed by flow cytometry gated on NK cells.

[8] = biological target: T7, human CD16B of neutrophils (human, UniProt O75015 17-200); test: flow cytometry, whole blood of donor D59780, neutrophils: CD66b FITC / αhFc PE double-positive cells (%)
T7 construct: whole, on cells; also called CD16B-expressing cells of the gated granulocyte population

[9] = biological target: T7, human CD16B of neutrophils; test: flow cytometry, whole blood of donor D48353, gated granulocyte population (CD66b PerCP Cy5.5): αhFc APC (% positive)

T3 sequence (P08637 17-208 limits assumed, stated change not applied): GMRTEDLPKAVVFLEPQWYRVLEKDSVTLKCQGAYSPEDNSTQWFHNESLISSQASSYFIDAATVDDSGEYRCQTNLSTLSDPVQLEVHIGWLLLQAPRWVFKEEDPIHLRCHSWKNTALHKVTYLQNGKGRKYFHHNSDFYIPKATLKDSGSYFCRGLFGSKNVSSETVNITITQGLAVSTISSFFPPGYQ
T1 sequence (O75015 17-200 limits assumed): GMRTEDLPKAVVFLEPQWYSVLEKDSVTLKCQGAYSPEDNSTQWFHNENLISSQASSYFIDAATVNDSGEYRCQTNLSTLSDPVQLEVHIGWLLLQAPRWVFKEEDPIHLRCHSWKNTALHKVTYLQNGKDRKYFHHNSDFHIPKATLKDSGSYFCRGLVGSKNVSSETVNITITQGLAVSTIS
T2 sequence (P08637 17-208 F176V limits assumed): as the sequence (P08637 17-208 limits assumed, stated change not applied) above, with F160V counted along it
T4 sequence (P08637 17-254): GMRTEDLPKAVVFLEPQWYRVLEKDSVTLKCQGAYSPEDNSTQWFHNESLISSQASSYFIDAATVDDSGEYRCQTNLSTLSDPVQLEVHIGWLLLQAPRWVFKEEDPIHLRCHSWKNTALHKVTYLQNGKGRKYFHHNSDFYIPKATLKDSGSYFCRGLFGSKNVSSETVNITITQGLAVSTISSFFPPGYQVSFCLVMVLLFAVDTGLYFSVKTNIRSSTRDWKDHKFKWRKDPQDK
T6 sequence (P08637 17-208 limits assumed): as the sequence (P08637 17-208 limits assumed, stated change not applied) above
T7 sequence (O75015 17-200): as the sequence (O75015 17-200 limits assumed) above
T5 sequence (P08637 17-208 F176V limits assumed): as the sequence (P08637 17-208 limits assumed, stated change not applied) above, with F160V counted along it

Binder | Kd [1] | Kd [2] | Kd [3] | EC50 (read off the curve) [4] | Kd [5] | Kd [6] | EC50 (read off the curve) [7] | kon [2] | EC50 (read off the curve) [8] | EC50 (read off the curve) [9]
DART-F (bispecific antibody, Three-chain diabody; hCD16-M1 x A32; also called DART-F (hCD16-M1)) chain 1: QSALTQPPSASGSPGQSVTISCTGTSSDVGGYNYVSWYQHHPGKAPKLIISEVNNRPSGVPDRFSGSKSGNTASLTVSGLQAEDEAEYYCSSYTDIHNFVFGGGTKLTVLGGGSGGGGEVQLVESGGGLVKPGGSLRLSCAASGFTFSNYGMSWVRQAPGKGLEWVATISGGGSYTFYPDSVKGRFTISRDNAKNSLYLQMNSLRTEDTALYYCVRQSARAPEPYWGQGTLVTVSSASTKGEVAACEKEVAALEKEVAALEKEVAALEKGGGDKTHTCPPCPAPEAAGGPSVFLFPPKPKDTLMISRTPEVTCVVVDVSHEDPEVKFNWYVDGVEVHNAKTKPREEQYNSTYRVVSVLTVLHQDWLNGKEYKCKVSNKALPAPIEKTISKAKGQPREPQVYTLPPSREEMTKNQVSLWCLVKGFYPSDIAVEWESNGQPENNYKTTPPVLDSDGSFFLYSKLTVDKSRWQQGNVFSCSVMHEALHNHYTQKSLSLSPGK chain 2: DIQMTQSPSFLSASVGDRVTITCRASQNVGTHVAWYQQKPGKAPKSLLYSASYRYSGVPSRFSGSGSGTDFTLTISSLQSEDIATYYCQQYKSYPLTFGQGTKLEIKGGGSGGGGQVQLQESGPGLVKPSQTLSLSCTVSGGSSSSGAHYWSWIRQYPGKGLEWIGYIHYSGNTYYNPSLKSRITISQHTSENQFSLKLNSVTVADTAVYYCARGTRLRTLRNAFDIWGQGTLVTVSSASTKGKVAACKEKVAALKEKVAALKEKVAALKE chain 3: not shown | 0.4 nM | 0.1 nM | 0.1 nM | ~0.003 µg/mL | 0.3 nM | 0.2 nM | ~0.0002 µg/mL | – | – | –
DART-H (bispecific antibody, Three-chain diabody; hCD16-M1 x 7B2) chain 1: DIVMTQSPDSLAVSPGERATIHCKSSQTLLYSSNNRHSIAWYQQRPGQPPKLLLYWASMRLSGVPDRFSGSGSGTDFTLTINNLQAEDVAIYYCHQYSSHPPTFGHGTRVEIKGGGSGGGGEVQLVESGGGLVKPGGSLRLSCAASGFTFSNYGMSWVRQAPGKGLEWVATISGGGSYTFYPDSVKGRFTISRDNAKNSLYLQMNSLRTEDTALYYCVRQSARAPEPYWGQGTLVTVSSASTKGEVAACEKEVAALEKEVAALEKEVAALEKGGGDKTHTCPPCPAPEAAGGPSVFLFPPKPKDTLMISRTPEVTCVVVDVSHEDPEVKFNWYVDGVEVHNAKTKPREEQYNSTYRVVSVLTVLHQDWLNGKEYKCKVSNKALPAPIEKTISKAKGQPREPQVYTLPPSREEMTKNQVSLWCLVKGFYPSDIAVEWESNGQPENNYKTTPPVLDSDGSFFLYSKLTVDKSRWQQGNVFSCSVMHEALHNHYTQKSLSLSPGK chain 2: DIQMTQSPSFLSASVGDRVTITCRASQNVGTHVAWYQQKPGKAPKSLLYSASYRYSGVPSRFSGSGSGTDFTLTISSLQSEDIATYYCQQYKSYPLTFGQGTKLEIKGGGSGGGGQVQLVQSGGGVFKPGGSLRLSCEASGFTFTEYYMTWVRQAPGKGLEWLAYISKNGEYSKYSPSSNGRFTISRDNAKNSVFLQLDRLSADDTAVYYCARADGLTYFSELLQYIFDLWGQGARVTVSSASTKGKVAACKEKVAALKEKVAALKEKVAALKE chain 3: not shown | 0.4 nM | 0.1 nM | 0.04 nM | – | – | – | – | – | – | –
DART-Z (bispecific antibody, also called 4-LS21) chain 1: QSALTQPPSASGSPGQSVTISCTGTSSDVGGYNYVSWYQHHPGKAPKLIISEVNNRPSGVPDRFSGSKSGNTASLTVSGLQAEDEAEYYCSSYTDIHNFVFGGGTKLTVLGGGSGGGGEEVQLVQSGAEVKKPGESLKVSCKASGYTFTSYYMHWVRQAPGQGLEWMGIINPSGGSTSYAQKFQGRVTMTRDTSTSTVYMELSSLRSEDTAVYYCARGSAYYYDFADYWGQGTLVTVSSASTKGEVAACEKEVAALEKEVAALEKEVAALEK chain 2: QPVLTQPSSVSVAPGQTATISCGGHNIGSKNVHWYQQRPGQSPVLVIYQDNKRPSGIPERFSGSNSGNTATLTISGTQAMDEADYYCQVWDNYSVLFGGGTKLTVLGGGSGGGGQVQLQESGPGLVKPSQTLSLSCTVSGGSSSSGAHYWSWIRQYPGKGLEWIGYIHYSGNTYYNPSLKSRITISQHTSENQFSLKLNSVTVADTAVYYCARGTRLRTLRNAFDIWGQGTLVTVSSASTKGKVAACKEKVAALKEKVAALKEKVAALKE | – | 15.7 nM | 15.2 nM | – | – | – | – | – | – | –
DART-4 (bispecific antibody) chain 1: DIVMTQSPDSLAVSPGERATIHCKSSQTLLYSSNNRHSIAWYQQRPGQPPKLLLYWASMRLSGVPDRFSGSGSGTDFTLTINNLQAEDVAIYYCHQYSSHPPTFGHGTRVEIKGGGSGGGGQVTLRESGPALVKPTQTLTLTCTFSGFSLSTSGMGVGWIRQPPGKALEWLAHIWWDDDKRYNPALKSRLTISKDTSKNQVVLTMTNMDPVDTATYYCAQINPAWFAYWGQGTLVTVSSASTKGEVAACEKEVAALEKEVAALEKEVAALEKGGGDKTHTCPPCPAPEAAGGPSVFLFPPKPKDTLMISRTPEVTCVVVDVSHEDPEVKFNWYVDGVEVHNAKTKPREEQYNSTYRVVSVLTVLHQDWLNGKEYKCKVSNKALPAPIEKTISKAKGQPREPQVYTLPPSREEMTKNQVSLWCLVKGFYPSDIAVEWESNGQPENNYKTTPPVLDSDGSFFLYSKLTVDKSRWQQGNVFSCSVMHEALHNHYTQKSLSLSPGK chain 2: DIVMTQSPDSLAVSLGERATINCKASQSVDFDGDSFMNWYQQKPGQPPKLLIYTTSNLESGVPDRFSGSGSGTDFTLTISSLQAEDVAVYYCQQSNEDPYTFGQGTKLEIKGGGSGGGGQVQLVQSGGGVFKPGGSLRLSCEASGFTFTEYYMTWVRQAPGKGLEWLAYISKNGEYSKYSPSSNGRFTISRDNAKNSVFLQLDRLSADDTAVYYCARADGLTYFSELLQYIFDLWGQGARVTVSSASTKGKVAACKEKVAALKEKVAALKEKVAALKE chain 3: not shown | 7.8 nM | 23.3 nM | 76.8 nM | – | – | – | – | 290000 M⁻¹ s⁻¹ | – | –
DART-G (bispecific antibody, Three-chain diabody; hCD16-M2 (VH1) x A32; also called DART-G (hCD16-M2)) chain 1: QSALTQPPSASGSPGQSVTISCTGTSSDVGGYNYVSWYQHHPGKAPKLIISEVNNRPSGVPDRFSGSKSGNTASLTVSGLQAEDEAEYYCSSYTDIHNFVFGGGTKLTVLGGGSGGGGQVQLVQSGAEVKKPGASVKVSCKASGYTFTSSAMHWVRQAPGQGLEWMGYINHYNDGIKYNERFKGRVTITADKSTSTAYMELSSLRSEDTAVYYCATGYRYASWFASWGQGTLVTVSSASTKGEVAACEKEVAALEKEVAALEKEVAALEKGGGDKTHTCPPCPAPEAAGGPSVFLFPPKPKDTLMISRTPEVTCVVVDVSHEDPEVKFNWYVDGVEVHNAKTKPREEQYNSTYRVVSVLTVLHQDWLNGKEYKCKVSNKALPAPIEKTISKAKGQPREPQVYTLPPSREEMTKNQVSLWCLVKGFYPSDIAVEWESNGQPENNYKTTPPVLDSDGSFFLYSKLTVDKSRWQQGNVFSCSVMHEALHNHYTQKSLSLSPGK chain 2: EIVLTQSPATLSVSPGERATLSCRASQNIGTSIHWYQQKPDQSPKLLIKSVSESISGVPSRFSGSGSGTDFTLTINSLEAEDFATYYCQQSNSWPLTFGQGTKLEIKGGGSGGGGQVQLQESGPGLVKPSQTLSLSCTVSGGSSSSGAHYWSWIRQYPGKGLEWIGYIHYSGNTYYNPSLKSRITISQHTSENQFSLKLNSVTVADTAVYYCARGTRLRTLRNAFDIWGQGTLVTVSSASTKGKVAACKEKVAALKEKVAALKEKVAALKE chain 3: not shown | 2.6 nM | 0.8 nM | 1.9 nM | ~0.03 µg/mL | 2.2 nM | 2.6 nM | ~0.008 µg/mL | – | ~0.1 µg/mL | ~0.2 µg/mL
